Measured values published in the RNAGym collection of RNA variant scans (doi:10.1101/gr.219683.116).

B1: mRNA-splicing (parent)
chain: AGUUGCUGCUGGGAGCUCCAGCACAGUGAAAUGGACAGAAGGGCAGAGCAA

Variants of: B1
Test: exon inclusion enrichment index; higher = more inclusion; WT1 exon 5 minigene, HEK293

Row | Variant | exon inclusion enrichment index
1 | G5A U7C G8A U10C A14C G15A | 0.731
2 | G5A U7C G8A U10C A14C G15U | 1
3 | G5A U7C G8A U10C G11C G12U | 0.353
4 | G5A U7C G8A U10C G11C G12C | 0.415
5 | G5A U7C G8A U10C G11C G12A | 0.351
6 | G5A U7C G8A U10C G13A A14G | 2.19
7 | G5A U7C G8A U10C G13A A14C | 2.98
8 | G5A U7C G8A U10C G13A A14U | 2.87
9 | G5A U7C G8A U10C C16A U17G | 1.33
10 | G5A U7C G8A U10C C16A U17A | 2.05
11 | G5A U7C G8A U10C C16A U17C | 1.83
12 | G5A U7C G8A U10C A39G A40U | 0.283
13 | G5A U7C G8A U10C A39G A40C | 2.53
14 | G5A U7C G8A U10C A39G A40G | 0.26
15 | G5A U7C G8A C9U U10G | 0.887
16 | G5A U7C G8A U10C C19A | 1.39
17 | G5A U7C G8A U10C C19U | 0.131
18 | G5A U7C G8A U10C C19G | 1.88
19 | G5A U7C G8A U10A | 0.253
20 | G5A U7C G8A U10C | 2.53
21 | G5A U7C G8A U10C A20U | 2.38
22 | G5A U7C G8A U10C A20G | 2.79
23 | G5A U7C G8A U10C A20C | 1.81
24 | G5A U7C G8A U10C G15C C16G | 2.13

Row | Variant | exon inclusion enrichment index
25 | G5A U7C G8A U10C G15C C16A | 1.77
26 | G5A U7C G8A U10C G15C C16U | 2.28
27 | G5A U7C G8A U10C C22U A23G | 2.69
28 | G5A U7C G8A U10C C22U A23U | 1.53
29 | G5A U7C G8A U10C C22U A23C | 1.42
30 | G5A U7C G8A U10C C36A | 1.85
31 | G5A U7C G8A U10C C36U | 0.719
32 | G5A U7C G8A U10C C36G | 1.55
33 | G5A U7C G8A U10C G15U C16A | 1.58
34 | G5A U7C G8A U10C G15U C16U | 1.86
35 | G5A U7C G8A U10C G15U C16G | 1.74
36 | G5A U7C G8A U10C A47G G48U | 0.325
37 | G5A U7C G8A U10C A47G G48A | 1.37
38 | G5A U7C G8A U10C A47G G48C | 1.13
39 | G5A U7C G8A U10C A29U | 0.801
40 | G5A U7C G8A U10C A29G | 3.4
41 | G5A U7C G8A U10C A29C | 2.01
42 | G5A U7C G8A U10C A14G G15C | 1.06
43 | G5A U7C G8A U10C A14G G15U | 0.925
44 | G5A U7C G8A U10C A14G G15A | 1.8
45 | G5A U7C G8A U10C C16A | 2.46
46 | G5A U7C G8A U10C C16U | 2.53
47 | G5A U7C G8A U10C C16G | 1.39
48 | G5A U7C G8A U10C C22G | 3.37

Row | Variant | exon inclusion enrichment index
49 | G5A U7C G8A U10C C22U | 2.11
50 | G5A U7C G8A U10C C22A | 2.32
51 | G5A U7C G8A U10C A20G G21U | 2.6
52 | G5A U7C G8A U10C A20G G21A | 2.82
53 | G5A U7C G8A U10C A20G G21C | 2.62
54 | G5A U7C G8A U10C A35U C36G | 0.19
55 | G5A U7C G8A U10C A35U C36U | 0.0422
56 | G5A U7C G8A U10C A35U C36A | 0.00832
57 | G5A U7C G8A U10C A35G | 0.89
58 | G5A U7C G8A U10C A35C | 0.917
59 | G5A U7C G8A U10C A35U | 0.475
60 | G5A U7C G8A U10C C24U | 0.763
61 | G5A U7C G8A U10C C24G | 2.53
62 | G5A U7C G8A U10C C24A | 2.26
63 | G5A U7C G8A U10C A30C A31U | 2.21
64 | G5A U7C G8A U10C A30C A31G | 3.4
65 | G5A U7C G8A U10C A30C A31C | 3.14
66 | G5A U7C G8A U10C G26A U27C | 3.43
67 | G5A U7C G8A U10C G26A U27G | 2.93
68 | G5A U7C G8A U10C G26A U27A | 2.4
69 | G5A U7C G8A U10C A25U G26C | 2.25
70 | G5A U7C G8A U10C A25U G26A | 2.39
71 | G5A U7C G8A U10C A25U G26U | 1.75
72 | G5A U7C G8A U10C G15C | 2.72

Row | Variant | exon inclusion enrichment index
73 | G5A U7C G8A U10C G15U | 2.27
74 | G5A U7C G8A U10C G15A | 2.02
75 | G5A U7C G8A U10C C18U C19G | 0.804
76 | G5A U7C G8A U10C C18U C19U | 0.0421
77 | G5A U7C G8A U10C C18U C19A | 0.212
78 | G5A U7C G8A U10C A37G G38C | 2.62
79 | G5A U7C G8A U10C A37G G38U | 0.991
80 | G5A U7C G8A U10C A37G G38A | 2.19
81 | G5A U7C G8A U10C C19G A20C | 2.4
82 | G5A U7C G8A U10C C19G A20G | 1.34
83 | G5A U7C G8A U10C C19G A20U | 2.09
84 | G5A U7C G8A U10C G21A | 1.67
85 | G5A U7C G8A U10C G21C | 2.25
86 | G5A U7C G8A U10C G21U | 1.92
87 | G5A U7C G8A U10C A35G C36U | 0.025
88 | G5A U7C G8A U10C A35G C36A | 1.29
89 | G5A U7C G8A U10C A35G C36G | 0.306
90 | G5A U7C G8A U10C A20U G21A | 1.36
91 | G5A U7C G8A U10C A20U G21C | 2.33
92 | G5A U7C G8A U10C A20U G21U | 1.69
93 | G5A U7C G8A U10C A29G A30G | 1.92
94 | G5A U7C G8A U10C A29G A30U | 0.757
95 | G5A U7C G8A U10C A29G A30C | 1.32
96 | G5A U7C G8A U10C A45G G46C | 3.06

Row | Variant | exon inclusion enrichment index
97 | G5A U7C G8A U10C A45G G46A | 4.51
98 | G5A U7C G8A U10C A45G G46U | 2.26
99 | G5A U7C G8A U10C G13C A14U | 1.45
100 | G5A U7C G8A U10C G13C A14G | 1.71
101 | G5A U7C G8A U10C G13C A14C | 1.19
102 | G5A U7C G8A U10C A23C C24A | 2.48
103 | G5A U7C G8A U10C A23C C24G | 3.75
104 | G5A U7C G8A U10C A23C C24U | 1.16
105 | G5A U7C G8A U10C A45C G46U | 1.12
106 | G5A U7C G8A U10C A45C G46A | 1.42
107 | G5A U7C G8A U10C A45C G46C | 1.61
108 | G5A U7C G8A U10C C24A A25C | 3.6
109 | G5A U7C G8A U10C C24A A25U | 2.06
110 | G5A U7C G8A U10C C24A A25G | 2.4
111 | G5A U7C G8A U10C G21C C22A | 2.27
112 | G5A U7C G8A U10C G21C C22G | 3.61
113 | G5A U7C G8A U10C G21C C22U | 2.19
114 | G5A U7C G8A U10C A25C G26A | 4.29
115 | G5A U7C G8A U10C A25C G26U | 2.86
116 | G5A U7C G8A U10C A25C G26C | 2.75
117 | G5A U7C G8A U10C A20C G21A | 0.984
118 | G5A U7C G8A U10C A20C G21C | 0.722
119 | G5A U7C G8A U10C A20C G21U | 1
120 | G5A U7C G8A U10C C19A A20C | 1.38

Row | Variant | exon inclusion enrichment index
121 | G5A U7C G8A U10C C19A A20U | 0.815
122 | G5A U7C G8A U10C C19A A20G | 0.441
123 | G5A U7C G8A U10C C24U A25G | 3.39
124 | G5A U7C G8A U10C C24U A25U | 2.36
125 | G5A U7C G8A U10C C24U A25C | 3.55
126 | G5A U7C G8A U10C A31U U32A | 0.229
127 | G5A U7C G8A U10C A31U U32G | 1.32
128 | G5A U7C G8A U10C A31U U32C | 3.11
129 | G5A U7C G8A U10C C44U | 0.581
130 | G5A U7C G8A U10C C44G | 3.26
131 | G5A U7C G8A U10C C44A | 3.82
132 | G5A U7C G8A U10C G21A C22A | 1.09
133 | G5A U7C G8A U10C G21A C22U | 1.26
134 | G5A U7C G8A U10C G21A C22G | 2.31
135 | G5A U7C G8A U10C C16G U17C | 1.06
136 | G5A U7C G8A U10C C16G U17A | 2.77
137 | G5A U7C G8A U10C C16G U17G | 0.238
138 | G5A U7C G8A U10C A45U G46A | 1.75
139 | G5A U7C G8A U10C A45U G46U | 0.84
140 | G5A U7C G8A U10C A45U G46C | 1.55
141 | G5A U7C G8A U10C G15A C16A | 1.46
142 | G5A U7C G8A U10C G15A C16U | 1.55
143 | G5A U7C G8A U10C G15A C16G | 1.31
144 | G5A U7C G8A U10C A25G | 3.43

Row | Variant | exon inclusion enrichment index
145 | G5A U7C G8A U10C A25U | 2.57
146 | G5A U7C G8A U10C A25C | 4.03
147 | G5A U7C G8A U10C A29U A30U | 0.907
148 | G5A U7C G8A U10C A29U A30C | 1.98
149 | G5A U7C G8A U10C A29U A30G | 2.78
150 | G5A U7C G8A U10C C36A A37U | 1.07
151 | G5A U7C G8A U10C C36A A37G | 1.06
152 | G5A U7C G8A U10C C36A A37C | 2.61
153 | G5A U7C G8A U10C G13C | 1.1
154 | G5A U7C G8A U10C G13U | 0.0615
155 | G5A U7C G8A U10C G13A | 2.41
156 | G5A U7C G8A U10C A39U A40G | 0.575
157 | G5A U7C G8A U10C A39U A40U | 1.02
158 | G5A U7C G8A U10C A39U A40C | 2.41
159 | G5A U7C G8A U10C G28A | 0.733
160 | G5A U7C G8A U10C G28U | 0.556
161 | G5A U7C G8A U10C G28C | 1.68
162 | G5A U7C G8A U10A G11U | 1.37
163 | G5A U7C G8A U10A G11C | 1.63
164 | G5A U7C G8A U10A G11A | 1.07
165 | G5A U7C G8A U10C C44A A45G | 3.75
166 | G5A U7C G8A U10C C44A A45U | 4.02
167 | G5A U7C G8A U10C C44A A45C | 3.95
